Results as given in US20250136688A1 (Janssen / Centocor, published 2025).

How the values were obtained:
[1] = biological target: ectonucleotide pyrophosphatase/phosphodiesterase family member 2 (ENPP2) (human, UniProt Q13822 36-863); assay: flow cytometry on CHOK1 cells overexpressing ENPP2
[2] = biological target: T1, ectonucleotide pyrophosphatase/phosphodiesterase family member 3 (ENPP3) (human, UniProt O14638 1-875); assay: flow cytometry on CHO ENPP3 OE cells
T1 construct: whole, on cells; also called CD203c
T1 sequence (looked up): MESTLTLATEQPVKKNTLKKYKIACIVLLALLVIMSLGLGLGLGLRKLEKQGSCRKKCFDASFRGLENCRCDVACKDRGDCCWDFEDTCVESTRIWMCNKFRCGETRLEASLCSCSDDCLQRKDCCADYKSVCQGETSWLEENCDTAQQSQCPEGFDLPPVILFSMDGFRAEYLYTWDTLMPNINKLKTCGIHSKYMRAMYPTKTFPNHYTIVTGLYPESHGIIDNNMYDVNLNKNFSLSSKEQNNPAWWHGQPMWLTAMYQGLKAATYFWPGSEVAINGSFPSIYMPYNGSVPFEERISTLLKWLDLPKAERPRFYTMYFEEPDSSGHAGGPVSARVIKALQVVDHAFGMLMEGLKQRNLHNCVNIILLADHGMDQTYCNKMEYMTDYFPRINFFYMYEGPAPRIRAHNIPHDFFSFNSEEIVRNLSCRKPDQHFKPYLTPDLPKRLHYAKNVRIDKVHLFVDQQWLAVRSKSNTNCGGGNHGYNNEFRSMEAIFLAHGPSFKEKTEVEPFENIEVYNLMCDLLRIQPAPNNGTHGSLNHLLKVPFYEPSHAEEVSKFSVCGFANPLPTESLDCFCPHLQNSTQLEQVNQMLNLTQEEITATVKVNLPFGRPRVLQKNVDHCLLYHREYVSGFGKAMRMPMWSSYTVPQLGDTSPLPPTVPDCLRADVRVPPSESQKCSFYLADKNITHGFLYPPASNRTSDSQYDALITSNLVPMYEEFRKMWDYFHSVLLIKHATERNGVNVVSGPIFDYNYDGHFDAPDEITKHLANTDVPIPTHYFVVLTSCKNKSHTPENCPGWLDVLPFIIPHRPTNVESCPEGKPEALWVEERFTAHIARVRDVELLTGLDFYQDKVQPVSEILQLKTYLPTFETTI

Human CD3 epsilon [3] = biological target: T2, Human CD3 epsilon (human, UniProt P07766 23-207); assay: flow cytometry on T cells of healthy human donor 110040278
T2 construct: Stood on human T cells (pan-T cells, isolated donor T cells) as part of the TCR/CD3 complex; the other chains of the complex are not written here; also called CD3ε; CD3R
T2 sequence (P07766 23-207 limits assumed): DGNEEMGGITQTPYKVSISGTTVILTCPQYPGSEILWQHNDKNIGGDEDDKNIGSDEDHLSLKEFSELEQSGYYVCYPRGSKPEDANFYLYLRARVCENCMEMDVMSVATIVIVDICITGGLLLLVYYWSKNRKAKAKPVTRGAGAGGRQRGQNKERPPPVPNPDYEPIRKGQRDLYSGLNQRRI

Human CD3 epsilon [4] = biological target: T2, Human CD3 epsilon; assay: flow cytometry on T cells, average of 6 healthy human donors
[5] = biological target: T1, ectonucleotide …; assay: cell-based or functional assay
[6] = biological target: T1, ectonucleotide …; assay: flow cytometry on A704 cells

B1: NPP3B815 (NPP3B56×CD3B2030-N106A-spFv) (bispecific antibody, human IgG1, kappa, L234A L235A)
chain: EIVLTQSPATLSASPGERVTLSCSASSSVSYMNWYQQKPGCAPRRWIYDSSKLASGVPARFSGSGSGRDYTLTISSLEPEDFAVYYCQQWSRNPPTFGGGTKVEIKGGGSGGSGGCPPCGGSGGQVQLVQSGAEVKKPGSSVKVSCKASGYTFTRSTMHWVKQAPGQGLEWIGYINPSSAYTNYNQKFQGRVTLTADKSTSTAYMELSSLRSEDTAVYYCASPQVHYDYAGFPYWGCGTLVTVSSEPKSSDKTHTCPPCPAPEAAGGPSVFLFPPKPKDTLMISRTPEVTCVVVSVSHEDPEVKFNWYVDGVEVHNAKTKPREEQYNSTYRVVSVLTVLHQDWLNGKEYKCKVSNKALPAPIEKTISKAKGQPREPQVYTLPPSREEMTKNQVSLWCLVKGFYPSDIAVEWESNGQPENNYKTTPPVLDSDGSFFLYSKLTVDKSRWQQGNVFSCSVMHEALHNHYTQKSLSLSPGK
heavy: EVQLVESGGGRVKPGGSLRLSCAASGFTFSDYSMNWVRQAPGKGLEWVSSISSISSYVKYADSVKGRFTMSRDNAKNSLFLQMNSLRDEDMAVYYCARGHYFDYWGQGTLVTVSSASTKGPSVFPLAPSSKSTSGGTAALGCLVKDYFPEPVTVSWNSGALTSGVHTFPAVLQSSGLYSLSSVVTVPSSSLGTQTYICNVNHKPSNTKVDKKVEPKSCDKTHTCPPCPAPEAAGGPSVFLFPPKPKDTLMISRTPEVTCVVVSVSHEDPEVKFNWYVDGVEVHNAKTKPREEQYNSTYRVVSVLTVLHQDWLNGKEYKCKVSNKALPAPIEKTISKAKGQPREPQVYTLPPSREEMTKNQVSLSCAVKGFYPSDIAVEWESNGQPENNYKTTPPVLDSDGSFFLVSKLTVDKSRWQQGNVFSCSVMHEALHNRFTQKSLSLSPGK
light: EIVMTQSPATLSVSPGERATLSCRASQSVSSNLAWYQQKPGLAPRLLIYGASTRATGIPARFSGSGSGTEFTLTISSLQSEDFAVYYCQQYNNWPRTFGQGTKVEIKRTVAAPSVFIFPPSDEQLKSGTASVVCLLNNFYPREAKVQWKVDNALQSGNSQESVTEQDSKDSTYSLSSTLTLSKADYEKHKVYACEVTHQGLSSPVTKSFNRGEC
notes: Heavy Chain 1 = anti-CD3 spFv-Fc (knob); Heavy Chain 2 and Light Chain = anti-ENPP3 Fab arm NPP3B56 (hole); IgG1 with L234A, L235A, D265S; also called ENPP3×CD3
- binding result [1]: no binding
- EC50 [2]: 0.51 nM
- EC50 (Human CD3 epsilon [3]): 253 nM
- EC50 (Human CD3 epsilon [4]): 177 nM
- T-cell activation EC50, A704, donor 110040278, E:T 3:1 [5]: 0.008 nM
- T-cell activation EC50, A704, donor 110042496, E:T 3:1 [5]: 0.017 nM
- T-cell activation EC50, A704, donor 110042593, E:T 3:1 [5]: 0.013 nM
- T-cell activation EC50, A704, donor 110044049, E:T 3:1 [5]: 0.008 nM
- T-cell activation EC50, A704, donor 110048457, E:T 3:1 [5]: 0.01 nM
- T-cell activation EC50, A704, donor 888668965, E:T 3:1 [5]: 0.008 nM
- T-cell activation EC50, VMRCRCW, donor 110040278, E:T 3:1 [5]: 0.007 nM
- T-cell activation EC50, VMRCRCW, donor 110042496, E:T 3:1 [5]: 0.015 nM
- T-cell activation EC50, VMRCRCW, donor 110042593, E:T 3:1 [5]: 0.017 nM
- T-cell activation EC50, VMRCRCW, donor 110044049, E:T 3:1 [5]: 0.009 nM
- T-cell activation EC50, VMRCRCW, donor 110048457, E:T 3:1 [5]: 0.009 nM
- T-cell activation EC50, VMRCRCW, donor 888668965, E:T 3:1 [5]: 0.016 nM
- EC50 [6]: 1.01 nM
